Data taken from the supplement of paper PMC10201428.
± gives the standard deviation of the averaged measurements.

Key:
[1] = test system: VchCAST RNA-guided transposition machinery (E. coli BL21(DE3) host, lacZ target); assay: relative integration efficiency (T-LR orientation) vs wild-type transposon end (log2 (normalized fold change)); transposon end mutated: right end (5 bp flank + 75 bp right end); higher = more efficient transposition
Summary of the method: (§1)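 Relative integration efficiency is a fold change of output over input barcode abundance, normalised to reference barcodes and log-transformed. Input plasmids and genomic integration junctions were PCR-amplified and Illumina-sequenced from E. coli BL21(DE3) co-transformed with a T7-driven effector plasmid and pUC57 donor pools of 1549 left-end or 1849 right-end transposon variants. Plating was done with 0.1 mM IPTG at 37°C for 18 h, with two biological output replicates and four reference barcodes.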

[2] = test system: VchCAST RNA-guided transposition machinery (E. coli BL21(DE3) host, lacZ target); assay: relative integration efficiency (T-RL orientation) vs wild-type transposon end (log2 (normalized fold change)); transposon end mutated: right end (5 bp flank + 75 bp right end); higher = more efficient transposition
Summary of the method: as §1

Row | Sequence | relative integration efficiency (log2) [1] | relative integration efficiency (log2) [2]
1 | ACATTTGTTGATACAACCATAAAATGATAATTACACCCATAAATTGATAATTATCACACCCATAAATTGATATTGCCTCTGATAACTTCGTATAATGTATGCTATACGAAGTTATTCGCACCGACAC | 0.719 ± 0.031 | -0.484 ± 0.19
2 | ACATTTGTTGATACAACCATAAAATGATAATTACACCCATAAATTGATAATTATCACACCCATAAATTGATATTGCCTCTGATAACTTCGTATAGCATACATTATACGAAGTTATTCGCACCGACAC | 2.48 ± 0.26 | -3.13 ± 0.076
3 | ACATTTGTTGATACAACCATAAAATGATAATTACACCCATAAATTGATAATTATCACACCCATAAATTGATATTGCCTCTGATAACTTCGTATAGGATACTTTATACGAAGTTATTCGCACCGACAC | 1.19 ± 0.28 | -0.663 ± 0.27
4 | ACATTTGTTGATACAACCATAAAATGATAATTACACCCATAAATTGATAATTATCACACCCATAAATTGATATTGCCTCTGATAACTTCGTATAGTATACATTATACGAAGTTATTCGCACCGACAC | 2.27 ± 0.2 | -2.13 ± 0.21
5 | ACATTTGTTGATACAACCATAAAATGATAATTACACCCATAAATTGATAATTATCACACCCATAAATTGATATTGCCTCTGATAACTTCGTATAGTATACCTTATACGAAGTTATTCGCACCGACAC | 1.034 ± 0.0024 | -0.958 ± 0.26
6 | ACATTTGTTGATACAACCATAAAATGATAATTACACCCATAAATTGATAATTATCACACCCATAAATTGATATTGCCTCTGATAACTTGGTATAGCATACATTATACGAACGGTATCGCACCGACAC | 0.663 ± 0.24 | -0.811 ± 0.36
7 | ACATTTGTTGATACAACCATAAAATGATAATTACACCCATAAATTGATAATTATCACACCCATAAATTGATATTGCCTCTGATAGTACTGCGCGCCTGAATTCATCGTTAAATCGTCGCACCGACAC | 0.249 ± 0.17 | 0.0579 ± 0.2
8 | ACATTTGTTGATACAACCATAAAATGATAATTACACCCATAAATTGATAATTATCACACCCATAAATTGATATTGCCTCTGATCAAAATGTGAGCGAGTAACAACCTAGTCAGACCAGCACCGACAC | -0.0747 ± 0.17 | -0.102 ± 0.08
9 | ACATTTGTTGATACAACCATAAAATGATAATTACACCCATAAATTGATAATTATCACACCCATAAATTGATATTGCCTCTGATCAAATTGTGAGCGGATAACAATTTAGTCAGACCAGCACCGACAC | 0.00708 ± 0.62 | -0.232 ± 0.12
10 | ACATTTGTTGATACAACCATAAAATGATAATTACACCCATAAATTGATAATTATCACACCCATAAATTGATATTGCCTCTGATCAACCATAAAATGATAATTACATAGTCAGACCAAGCACCGACAC | 0.401 ± 0.26 | 0.875 ± 0.21
11 | ACATTTGTTGATACAACCATAAAATGATAATTACACCCATAAATTGATAATTATCACACCCATAAATTGATATTGCCTCTGATCAATATGTAACCAAAAGTAAAATAGTCAGACCAAGCACCGACAC | 0.023 ± 0.042 | -0.295 ± 0.29
12 | ACATTTGTTGATACAACCATAAAATGATAATTACACCCATAAATTGATAATTATCACACCCATAAATTGATATTGCCTCTGATCACAACCATAAAATGATAATTATAGTCAGACCAAGCACCGACAC | -0.402 ± 0.11 | -0.0149 ± 0.23
13 | ACATTTGTTGATACAACCATAAAATGATAATTACACCCATAAATTGATAATTATCACACCCATAAATTGATATTGCCTCTGATCAGGAATTGTGAGCGGATAACAATTTAGTCAGACGCACCGACAC | 0.397 ± 0.067 | 0.138 ± 0.16
14 | ACATTTGTTGATACAACCATAAAATGATAATTACACCCATAAATTGATAATTATCACACCCATAAATTGATATTGCCTCTGATCAGGCAGTGAGCGCAACGCAATTTAGTCAGACCAGCACCGACAC | -0.287 ± 0.16 | -0.283 ± 0.16
15 | ACATTTGTTGATACAACCATAAAATGATAATTACACCCATAAATTGATAATTATCACACCCATAAATTGATATTGCCTCTGATCATAAATATATAAATTAATTATTAAATTAGTCAGGCACCGACAC | 1.54 ± 0.18 | 1.34 ± 0.21
16 | ACATTTGTTGATACAACCATAAAATGATAATTACACCCATAAATTGATAATTATCACACCCATAAATTGATATTGCCTCTGATCATAATTGTTATCCGCTCACAATTCCAGTCAGACGCACCGACAC | 0.885 ± 0.33 | -0.659 ± 0.41
17 | ACATTTGTTGATACAACCATAAAATGATAATTACACCCATAAATTGATAATTATCACACCCATAAATTGATATTGCCTCTGATCATACAACCATAAAATGATAATTAGTCAGACCAAGCACCGACAC | -0.751 ± 0.19 | 0.403 ± 0.3
18 | ACATTTGTTGATACAACCATAAAATGATAATTACACCCATAAATTGATAATTATCACACCCATAAATTGATATTGCCTCTGATCATAGCAACCATAAAATGATAATTATCAGACCAAGCACCGACAC | -0.337 ± 0.55 | -0.108 ± 0.26

Row | Sequence | relative integration efficiency (log2) [1] | relative integration efficiency (log2) [2]
19 | ACATTTGTTGATACAACCATAAAATGATAATTACACCCATAAATTGATAATTATCACACCCATAAATTGATATTGCCTCTGATCATAGCGTACTAGTTAACTAGTTCGAGTCAGACCGCACCGACAC | -0.453 ± 0.046 | -0.142 ± 0.091
20 | ACATTTGTTGATACAACCATAAAATGATAATTACACCCATAAATTGATAATTATCACACCCATAAATTGATATTGCCTCTGATCATAGTCAAACTGTATTTATATACAGTTGGACCAGCACCGACAC | 0.414 ± 0.18 | 0.00825 ± 0.2
21 | ACATTTGTTGATACAACCATAAAATGATAATTACACCCATAAATTGATAATTATCACACCCATAAATTGATATTGCCTCTGATCATAGTCAACCATAAAATGATAATTACAGACCAAGCACCGACAC | -0.792 ± 0.34 | -0.223 ± 0.2
22 | ACATTTGTTGATACAACCATAAAATGATAATTACACCCATAAATTGATAATTATCACACCCATAAATTGATATTGCCTCTGATCATAGTCAACTGTATATAAATACAGTTCAGACCAGCACCGACAC | 0.274 ± 0.022 | -0.116 ± 0.21
23 | ACATTTGTTGATACAACCATAAAATGATAATTACACCCATAAATTGATAATTATCACACCCATAAATTGATATTGCCTCTGATCATAGTCAATGTGATAACAATCACAGAAGACCAAGCACCGACAC | -0.0829 ± 0.35 | 0.245 ± 0.16
24 | ACATTTGTTGATACAACCATAAAATGATAATTACACCCATAAATTGATAATTATCACACCCATAAATTGATATTGCCTCTGATCATAGTCACAACCATAAAATGATAATTAGACCAAGCACCGACAC | -0.387 ± 0.086 | -0.196 ± 0.19
25 | ACATTTGTTGATACAACCATAAAATGATAATTACACCCATAAATTGATAATTATCACACCCATAAATTGATATTGCCTCTGATCATAGTCAGACAACCATAAAATGATAATTACCAAGCACCGACAC | -0.436 ± 0.47 | -0.231 ± 0.065
26 | ACATTTGTTGATACAACCATAAAATGATAATTACACCCATAAATTGATAATTATCACACCCATAAATTGATATTGCCTCTGATCATAGTCAGACCAACAACCATAAAATGATAATTAGCACCGACAC | -0.0679 ± 0.32 | 0.0312 ± 0.094
27 | ACATTTGTTGATACAACCATAAAATGATAATTACACCCATAAATTGATAATTATCACACCCATAAATTGATATTGCCTCTGATCATAGTCAGACCAACATTTGTGAGCGGATAACAAGCACCGACAC | -0.684 ± 0.077 | -0.379 ± 0.087
28 | ACATTTGTTGATACAACCATAAAATGATAATTACACCCATAAATTGATAATTATCACACCCATAAATTGATATTGCCTCTGATCATAGTCAGACCAACCATAAAATGATAATTACAAGCACCGACAC | -0.0296 ± 0.24 | -0.253 ± 0.23
29 | ACATTTGTTGATACAACCATAAAATGATAATTACACCCATAAATTGATAATTATCACACCCATAAATTGATATTGCCTCTGATCATAGTCAGACCACAACCATAAAATGATAATTAAGCACCGACAC | -0.205 ± 0.37 | -0.0173 ± 0.24
30 | ACATTTGTTGATACAACCATAAAATGATAATTACACCCATAAATTGATAATTATCACACCCATAAATTGATATTGCCTCTGATCATAGTCAGACCCAACCATAAAATGATAATTAAAGCACCGACAC | 0.192 ± 0.26 | 0.0847 ± 0.29
31 | ACATTTGTTGATACAACCATAAAATGATAATTACACCCATAAATTGATAATTATCACACCCATAAATTGATATTGCCTCTGATCATAGTCAGATGAATTTTTATGCAAAGACCAACAGCACCGACAC | 0.652 ± 0.2 | 0.552 ± 0.3
32 | ACATTTGTTGATACAACCATAAAATGATAATTACACCCATAAATTGATAATTATCACACCCATAAATTGATATTGCCTCTGATCATAGTCAGCAACCATAAAATGATAATTAACCAAGCACCGACAC | -0.485 ± 0.41 | -0.283 ± 0.15
33 | ACATTTGTTGATACAACCATAAAATGATAATTACACCCATAAATTGATAATTATCACACCCATAAATTGATATTGCCTCTGATCATAGTCAGCTGAAGCGAGACACCGACCAACATTGCACCGACAC | -0.204 ± 0.33 | -0.174 ± 0.19
34 | ACATTTGTTGATACAACCATAAAATGATAATTACACCCATAAATTGATAATTATCACACCCATAAATTGATATTGCCTCTGATCATAGTCCAACCATAAAATGATAATTAAGACCAAGCACCGACAC | -0.498 ± 1.1 | -0.312 ± 0.44
35 | ACATTTGTTGATACAACCATAAAATGATAATTACACCCATAAATTGATAATTATCACACCCATAAATTGATATTGCCTCTGATCATAGTCGAACTAGTTAACTAGTACGCTCAGACCGCACCGACAC | 0.192 ± 0.2 | -0.00349 ± 0.18
